According to patent publication US20250277030A1 (Zymeworks, published 2025):

How the values were obtained:
[1] = target: T1, KLH (Sigma-Aldrich, H8283); assay: non-specific binding ELISA, KLH coated at 5 µg/mL, antibody at 100 nM
T1 construct: also called keyhole limpet hemocyanin
Protocol: NS-ELISA was carried out in Corning®96-well EIA/RIA Easy Wash™ Clear Flat Bottom Polystyrene High Bind Microplate coated overnight at 4° C. with 50 μL of Heparin (Sigma, H3149) diluted with 50 mM sodium carbonate pH 9.6 to a final concentration of 250 μg/mL. The plate was incubated for 2 days at room temperature, wells that were coated with heparin were not covered to allow air dry. […] 50 μL each of insulin, KLH, dsDNA and ssDNA were added to a 96 well plate, followed by the incubation at 37° C. for 2 h. The coating materials were removed, and the plate was blocked with 200 μL of Gibco™ PBS pH7.4, 0.1% Tween®20, and incubated for 1 h at room temperature with shaking at 200 rpm. The plate was washed 3 times with Gibco™ PBS pH7.4, 0.1% Tween 20. […] Reactions were stopped after approximately 10 minutes by adding 100 μL of 1 M HCl to each well, and absorbance was read at 450 nm. Binding scores were calculated as the ratio of the ELISA signal of the antibody (antibody-treated) to the signal of a well containing buffer instead of the primary antibody (untreated). The cutoffs considered for each binding molecule (ssDNA, KLH, insulin, dsDNA and heparin) were internally calculated, based on the average of Zymeworks Inc. produced antibodies and antibodies benchmarks published in the literature.

[2] = target: T2, human sodium-dependent phosphate transporter 2B (NaPi2b) (human, UniProt O95436 1-690); assay: flow cytometry, HEK293-6e cells transfected with human NaPi2b
T2 construct: UniProt ID is given as 095436 [sic]; also called hNaPi2b; Hu NaPi2b
T2 sequence: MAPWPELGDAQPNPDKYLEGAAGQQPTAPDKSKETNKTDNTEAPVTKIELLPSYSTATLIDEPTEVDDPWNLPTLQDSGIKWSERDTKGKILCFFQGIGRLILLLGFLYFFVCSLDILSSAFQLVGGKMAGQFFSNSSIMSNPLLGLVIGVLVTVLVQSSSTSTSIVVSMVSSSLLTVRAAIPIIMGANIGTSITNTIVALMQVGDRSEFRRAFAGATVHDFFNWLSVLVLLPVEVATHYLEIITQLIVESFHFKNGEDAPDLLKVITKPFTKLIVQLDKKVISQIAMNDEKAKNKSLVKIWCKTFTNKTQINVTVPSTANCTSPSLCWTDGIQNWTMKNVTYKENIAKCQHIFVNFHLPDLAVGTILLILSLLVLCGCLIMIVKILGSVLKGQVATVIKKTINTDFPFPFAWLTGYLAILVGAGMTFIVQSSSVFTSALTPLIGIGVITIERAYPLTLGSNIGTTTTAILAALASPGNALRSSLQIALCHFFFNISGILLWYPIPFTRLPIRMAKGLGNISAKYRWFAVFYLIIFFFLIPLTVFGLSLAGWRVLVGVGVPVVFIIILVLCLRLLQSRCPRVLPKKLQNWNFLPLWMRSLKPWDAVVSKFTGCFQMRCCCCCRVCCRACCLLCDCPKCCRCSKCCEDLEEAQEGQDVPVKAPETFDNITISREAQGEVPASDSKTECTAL
Protocol: (§1) The binding cross-reactivity of humanized antibody variant v29456 to human, cynomolgus and mouse NaPi2b was assessed by flow cytometry using HEK293-6e transfected cells.
(§2) Briefly, HEK293-6e cells were transfected for ˜24 hours to transiently express human NaPi2b, cynomolgus or mouse NaPi2b, at 1 μg of DNA per 1 million cells. Following transfection, 50,000 cells per well were seeded in V-bottom 96-well plates and incubated with 200 nM of primary antibody for 18-24 hours at 4° C. to prevent internalization. Post-incubation, cells were washed and stained with anti-Human IgG Fc AF647 conjugate (Jackson Immuno Research Labs, West Grove, PA, Cat. No. 109-605-098, Lot. No. 124868) at 4° C. for 1 hour. Following staining and washing, fluorescence was detected by flow cytometry on BD LSRFortessa™ Cell Analyzer (BD Biosciences, Franklin Lake, NJ) with 10,000 minimum events collected per well. The AF647/APC-A GeoMean (fluorescence signal geometric mean, proportional to anti-Human AF647 binding) was calculated for the live singlet cell population for each primary antibody using FlowJo™ v8 software (BD Biosciences, Franklin Lake, NJ). The Bmax and Kd of each primary antibody were calculated using GraphPad Prism Version 9 (GraphPad Software, San Diego, CA)

[3] = target: T2, human sodium-dependent phosphate …; assay: flow cytometry, IGROV-1 cells (endogenous NaPi2b); apparent Kd
Protocol: (§3) Briefly, cells were seeded at 50,000 cells/well in conical-bottom 96-well plates and treated with test antibody for 24 hours at 4° C. to prevent internalization. […] Following incubation, cells were washed and stained with anti-Human IgG Fc AF647 conjugate (Jackson Immuno Research Labs, West Grove, PA; Cat. No. 109-605-098) at 4° C. for 30 min. Following incubation and washing, fluorescence was detected by flow cytometry on a BD LSRFortessa™ Cell Analyzer (BD Biosciences, Franklin Lake, NJ) with 1,000 minimum events collected per well. The AF647/APC-A GeoMean (fluorescence signal geometric mean, proportional to anti-Human AF647 binding) was calculated for the live cell population using FlowJo™ Version 10.8.1 (BD Biosciences, Franklin Lake, NJ) and plotted for each test antibody using GraphPad Prism Version 9 (GraphPad Software, San Diego, CA).
(§4) The ability of the humanized antibody variants v38591 and v29456 to bind to NaPi2b expressed on cells was assessed on endogenous NaPi2b-expressing tumor cell lines IGROV-1 (ovarian adenocarcinoma) and TOV-21G (ovarian carcinoma) by flow cytometry.
(§5) Cellular binding was performed according to methods described in Example 13.

[4] = target: T2, human sodium-dependent phosphate …; assay: flow cytometry, HCC-78 cells (endogenous NaPi2b)
Protocol: as §2
(§6) The ability of ADCs to bind to cells expressing NaPi2b was assessed. […] Binding to endogenous high NaPi2b-expressing cell lines IGROV-1 and HCC-78 was assessed by flow cytometry according to methods described in Example 5.

[5] = target: T2, human sodium-dependent phosphate …; assay: flow cytometry on IGROV-1 cells (endogenous NaPi2b), 24 h at 4 C, anti-human IgG Fc AF647 detection
Protocol: as §3, §4, §5

[6] = target: T2, human sodium-dependent phosphate …; assay: flow cytometry, IGROV-1 cells (endogenous NaPi2b), 24 h at 4 °C
In short: (§7)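 IGROV-1 cells were incubated with test antibody for 24 hours at 4° C to prevent internalization, then stained with anti-human IgG Fc AF647 for 30 min at 4° C. AF647 geometric mean fluorescence of live cells was measured by flow cytometry and plotted per antibody.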

[7] = target: T2, human sodium-dependent phosphate …; assay: flow cytometry on IGROV-1 cells (endogenous NaPi2b), 4 C, anti-human IgG Fc AF647 detection
Protocol: as §2, §6

[8] = target: T2, human sodium-dependent phosphate …; assay: flow cytometry, HEK293-6e cells transfected with human NaPi2b; apparent Kd
Protocol: as §1, §2

[9] = target: T2, human sodium-dependent phosphate …; assay: flow cytometry on TOV-21G cells (endogenous NaPi2b), 24 h at 4 C, anti-human IgG Fc AF647 detection
Protocol: as §3, §4, §5

[10] = target: T2, human sodium-dependent phosphate …; assay: flow cytometry, IGROV-1 cells (endogenous NaPi2b), 24 h at 4 °C; apparent Kd
In short: as §7

NS-ELISA binding score (ratio of signal between antibody-treated and untreated) [1]: 1.37 ratio
Bmax (APC-A GeoMean) [2]: 2540 APC-A GeoMean
Kd [3]: 1.28 nM
Bmax [4]: 21800
EC50 (read off the curve) [5]: ~1 nM
Bmax (MFI) [6]: 40900 MFI
EC50 (read off the curve) [7]: ~0.6 nM
Kd [8]: 5.2 nM
EC50 (read off the curve) [9]: ~0.7 nM
Kd [10]: 1.1 nM
B1: v29456 humanized anti-NaPi2b antibody (H1L2) (antibody, human IgG1, kappa)
heavy: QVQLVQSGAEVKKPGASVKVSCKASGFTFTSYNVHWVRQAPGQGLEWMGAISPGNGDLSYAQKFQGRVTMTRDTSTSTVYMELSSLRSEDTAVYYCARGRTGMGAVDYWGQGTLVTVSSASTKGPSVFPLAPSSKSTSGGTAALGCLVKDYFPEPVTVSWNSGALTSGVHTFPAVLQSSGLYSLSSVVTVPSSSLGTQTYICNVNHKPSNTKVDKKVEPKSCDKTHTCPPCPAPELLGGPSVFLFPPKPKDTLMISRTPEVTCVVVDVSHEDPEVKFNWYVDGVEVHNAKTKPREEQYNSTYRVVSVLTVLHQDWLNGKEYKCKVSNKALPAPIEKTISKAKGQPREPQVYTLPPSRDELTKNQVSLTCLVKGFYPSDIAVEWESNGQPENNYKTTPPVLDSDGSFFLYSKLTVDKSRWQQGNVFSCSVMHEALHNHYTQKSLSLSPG
light: DVQMTQSPSSLSASVGDRVTITCRASQDVYSYLNWYQQKPGKAVKLLIYYTSRLQSGVPSRFSGSGSGTDYTLTISSLQPEDFATYYCQQYNIFPWTFGQGTKLEIKRTVAAPSVFIFPPSDEQLKSGTASVVCLLNNFYPREAKVQWKVDNALQSGNSQESVTEQDSKDSTYSLSSTLTLSKADYEKHKVYACEVTHQGLSSPVTKSFNRGEC
